Data as given in the RNAGym collection of RNA variant scans (doi:10.1073/pnas.2313332121).

B1: TPR t1 (parent)
chain: GACCAAUCUGCCCUCAGAGCUCGAGAACAUCUUCGGAUGCAGAGGAGGCAGGCUUCGGUGGCGCGAUAGCGCCAACGUCCUCAACCUCCAAUGCAUCCCACCACAUGAUGAUGCCUGAAGAGCCUUGGUUUUUUG

Variants of: B1
Experiment: polymerase ribozyme fitness, log enrichment relative to wild type (log ratio); higher = more active; in vitro selection for triplet polymerase activity
Method in brief: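 Genotype fitness is the logarithm of its enrichment divided by wild-type enrichment, using inverse-variance-weighted averages of replicates. That logarithm is base 2. Enrichment was measured by Illumina sequencing of input and output libraries from one triplicate in vitro selection round, with frozen incubation at −7 °C, on PCR-built, transcribed mutant libraries of each subunit of a heterodimeric triplet polymerase ribozyme, retaining genotypes with ≥10 input reads and ≥1 read per output.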
For A41G G110U, the “polymerase ribozyme fitness (log ratio)” value was -1.97. For A41U A43C C49U A50G U129C, the “polymerase ribozyme fitness (log ratio)” value was -4.69. In the case of A41G G69U A74U U81A, the “polymerase ribozyme fitness (log ratio)” value is reported as -1.11. With A41G G42A the “polymerase ribozyme fitness (log ratio)” value was -2.57. With A41G G71U A91U the “polymerase ribozyme fitness (log ratio)” value was -2.66. With A41C G45U G69U C124A U126G the “polymerase ribozyme fitness (log ratio)” value was -1.04. For A41G C104A G113C, the “polymerase ribozyme fitness (log ratio)” value was -3.19. In the case of A41C C104G G107U G110U, the “polymerase ribozyme fitness (log ratio)” value is reported as -7.15. In the case of A41C C104A G122A, the “polymerase ribozyme fitness (log ratio)” value is reported as -3.8. For A41C U55A G61U C102U, the “polymerase ribozyme fitness (log ratio)” value was -3.48. With A41C G52C C73G the “polymerase ribozyme fitness (log ratio)” value was -2.96. In the case of A41C A90G, the “polymerase ribozyme fitness (log ratio)” value is reported as -0.105. With A41U C53U the “polymerase ribozyme fitness (log ratio)” value was -1.15. With A41C U81G C115A the “polymerase ribozyme fitness (log ratio)” value was -4.91. In the case of A41G C56U C72A G113A G128U, the “polymerase ribozyme fitness (log ratio)” value is reported as -5.53. For A41G G117C, the “polymerase ribozyme fitness (log ratio)” value was -4.18. With A41C U55G A66C G93C the “polymerase ribozyme fitness (log ratio)” value was -4.9. With A41U A43U G113A C124A the “polymerase ribozyme fitness (log ratio)” value was -1.71. In the case of A41U A46U C115A G120U C123G, the “polymerase ribozyme fitness (log ratio)” value is reported as -2.25. In the case of A41C G69C C114A, the “polymerase ribozyme fitness (log ratio)” value is reported as -3.84. For A41C G57C A90G C97A, the “polymerase ribozyme fitness (log ratio)” value was -4.54. With A41U A46U G61A the “polymerase ribozyme fitness (log ratio)” value was -1.65. With A41C G44A G58C G93C the “polymerase ribozyme fitness (log ratio)” value was -1.87. In the case of A41C C114A, the “polymerase ribozyme fitness (log ratio)” value is reported as -2.37. In the case of A41G C101A, the “polymerase ribozyme fitness (log ratio)” value is reported as -1.25. In the case of A41G G71U, the “polymerase ribozyme fitness (log ratio)” value is reported as -0.756. For A41C C123A G128U, the “polymerase ribozyme fitness (log ratio)” value was -2.19. In the case of A41U A74C, the “polymerase ribozyme fitness (log ratio)” value is reported as -4.24. With A41U A74U the “polymerase ribozyme fitness (log ratio)” value was -1.31. With A41G G52C A66C C97U the “polymerase ribozyme fitness (log ratio)” value was -3.69. With A41U A46U C89G A121C the “polymerase ribozyme fitness (log ratio)” value was -7.24. With A41G U112A the “polymerase ribozyme fitness (log ratio)” value was 1.42. For A41C G48U G61C U92A, the “polymerase ribozyme fitness (log ratio)” value was -5.63. In the case of A41C C124G, the “polymerase ribozyme fitness (log ratio)” value is reported as 0.528. For A41G C56A G63U C70U, the “polymerase ribozyme fitness (log ratio)” value was -2.43. For A41G C73U A100U, the “polymerase ribozyme fitness (log ratio)” value was -1.33. In the case of A41G C89G G128C, the “polymerase ribozyme fitness (log ratio)” value is reported as -3.51. For A41C C70A U81A U92C, the “polymerase ribozyme fitness (log ratio)” value was -5.78. In the case of A41G G42C A46C U54A G60U G110A, the “polymerase ribozyme fitness (log ratio)” value is reported as -4.92. In the case of A41G A121U, the “polymerase ribozyme fitness (log ratio)” value is reported as 1.72. With A41U C53G G58A C70U G110C U131A the “polymerase ribozyme fitness (log ratio)” value was -6.81. For A41G U87G U109A C115U, the “polymerase ribozyme fitness (log ratio)” value was -6.39. In the case of A41G C53U, the “polymerase ribozyme fitness (log ratio)” value is reported as -0.653. With A41C U92G G120U U129C the “polymerase ribozyme fitness (log ratio)” value was -2.62. For A41U C62A, the “polymerase ribozyme fitness (log ratio)” value was -2.71. For A41U C62U, the “polymerase ribozyme fitness (log ratio)” value was -1.86. For A41G U55A C56U C72G A118U, the “polymerase ribozyme fitness (log ratio)” value was -0.698. In the case of C40U U112C, the “polymerase ribozyme fitness (log ratio)” value is reported as 1.25. With C40U U112G the “polymerase ribozyme fitness (log ratio)” value was 0.138. With A41G C49A G113C C124U the “polymerase ribozyme fitness (log ratio)” value was -3.06. For A41U C49U U109A U130G, the “polymerase ribozyme fitness (log ratio)” value was -6.38. In the case of A41G G69C G117U, the “polymerase ribozyme fitness (log ratio)” value is reported as -4.65. For A41G A46U G77U, the “polymerase ribozyme fitness (log ratio)” value was -3.75. With A41U C49G G52U U112C the “polymerase ribozyme fitness (log ratio)” value was -1.09. With A41U C53U G117C U131A the “polymerase ribozyme fitness (log ratio)” value was -5.46. With A41U C49G A83C U133G the “polymerase ribozyme fitness (log ratio)” value was -1.44. With A41U A46U G63U the “polymerase ribozyme fitness (log ratio)” value was -3.33. For A41G C79G, the “polymerase ribozyme fitness (log ratio)” value was -4.32. In the case of A41U C72G, the “polymerase ribozyme fitness (log ratio)” value is reported as -2.06. For A41U A43U U54G G93A U106G, the “polymerase ribozyme fitness (log ratio)” value was -3.16. With A41U C72U C88U the “polymerase ribozyme fitness (log ratio)” value was -1.2. For A41G G52A G61C C85U C124A U126C, the “polymerase ribozyme fitness (log ratio)” value was -5.73. For A41C U133G, the “polymerase ribozyme fitness (log ratio)” value was -1.16. For A41G C86A U87C G113U, the “polymerase ribozyme fitness (log ratio)” value was -4.97. In the case of A41G C73G G93C, the “polymerase ribozyme fitness (log ratio)” value is reported as -2.94. In the case of A41G A43U G61U C88G C94G G117A, the “polymerase ribozyme fitness (log ratio)” value is reported as -7.23. In the case of A41G G52A U59C U125G, the “polymerase ribozyme fitness (log ratio)” value is reported as -1.61. In the case of A41G C53G A84C U126A, the “polymerase ribozyme fitness (log ratio)” value is reported as -2.86. With A41U A43U the “polymerase ribozyme fitness (log ratio)” value was -1.37. In the case of A41G C62A, the “polymerase ribozyme fitness (log ratio)” value is reported as -1.85. For A41G C49G U59G, the “polymerase ribozyme fitness (log ratio)” value was -1.99. In the case of A41G C49U G110A G122A G127U, the “polymerase ribozyme fitness (log ratio)” value is reported as -5.4. For A41C G93U, the “polymerase ribozyme fitness (log ratio)” value was -1.92. With A41U C56U A75G U78C C82G A118G G120U A121U U129G the “polymerase ribozyme fitness (log ratio)” value was -3.43. With A41C G61U the “polymerase ribozyme fitness (log ratio)” value was -0.204. With A41G A105U the “polymerase ribozyme fitness (log ratio)” value was -3.3. In the case of A41C C86A U106A, the “polymerase ribozyme fitness (log ratio)” value is reported as -1.11. With A41U A83U U87G U92A the “polymerase ribozyme fitness (log ratio)” value was -0.357. With A41U C56G G71U C79U G117C the “polymerase ribozyme fitness (log ratio)” value was -6.29. With A41G G110A U125G U130G the “polymerase ribozyme fitness (log ratio)” value was -2.05. With A41U C56G G69C U92A the “polymerase ribozyme fitness (log ratio)” value was -5.43. In the case of A41G C99U, the “polymerase ribozyme fitness (log ratio)” value is reported as -3.39. For A41C U55G U59C G93C, the “polymerase ribozyme fitness (log ratio)” value was -2.33. With A41C G52A A74U C88U the “polymerase ribozyme fitness (log ratio)” value was -2.04.
